{"source": "patent US5981483A", "about": "“Compositions comprising modulators of cytokines of the TGF-β superfamily” (Mount Sinai Hospital Corporation, priority 1997, dated 1999)", "key": {"[1]": {"target": "T1, TGF-β1 (Homo sapiens, UniProt P01137)", "T1 construct": "The mature processed cytokines produced from the members of the gene family show almost 100% amino acid identity between species; purchased Collaborative Research (Bedford, Mass.)", "T1 sequence (P01137 279-390 limits assumed)": "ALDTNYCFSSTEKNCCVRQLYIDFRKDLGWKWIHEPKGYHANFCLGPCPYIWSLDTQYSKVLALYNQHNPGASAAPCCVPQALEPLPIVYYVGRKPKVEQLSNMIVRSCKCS", "experiment": "3H-Thymidine incorporation in Mv1Lu cells: neutralization of the antiproliferative activity of TGF-β1", "assay_type": "cell-based", "procedure": "Mv1Lu cells were seeded at 20,000 cells/well in a 96 well plate containing 0.2% FCS in α-MEM and incubated with the indicated concentrations of proteins for 18 hr. The cells were then pulsed with 8 μCi/ml methyl-^3 H-thymidine (NEN, Boston, Mass.) for 6 hr. Cells were trypsinized, harvested onto filtermats and counted in a β-Counter. Percent neutralization is defined as incorporation in the presence of 12 pM TGF-β1 alone set at 0%, and incorporation without additions as 100%. The difference in ^3 H-thymidine incorporation between 0% and 100% was 7.5 fold. Each point in FIG. 1 and FIG. 12 represents the mean of duplicate determinations, and the results are representative of three experiments. […] Before use, bovine thyroglobulin was spun twice in a centricon (M.W. cutoff of 10,000 Da) micro-concentrator (Amicon, Beverly, Mass.) to remove any excess Iodine and T3/T4 thyroid hormones."}, "[2]": {"target": "T1, TGF-β1", "experiment": "BIAcore surface plasmon resonance, binding to immobilized TGF-β1", "settings": "ligand TGF-β1", "procedure": "(§1) In this system, a purified protein serving as the ligand is covalently coupled to a carboxymethylated dextran surface, and binding molecules (i.e. the analyte) are passed in a fluid phase across the surface. Binding of the analyte to ligand causes a change in reflected light which is directly proportional to mass bound, and is measured in arbitrary response units (R.U.). Analyte-ligand binding is observed as both increasing response with time during the injection of analyte, and the difference in the position of the baseline before and after injection.\n(§2) Schuster, R. V. Swanson, L. A. Alex, R. B. Bourret, M. I. Simon, Nature 365, 343 (1993). 1000 R.U. equals approximately 1 ng/mm^2. The running buffer was 20 mM Hepes (pH 7.2), 150 mM NaCl and the flow rate for all sensorgrams was 3 μl/min.\n(§3) Regeneration of the surface to remove bound analyte was done by injection of 10 μl of 20 mM NaOH. To cyclize TRH1 peptides, the material was reduced with 5 mM DTT then brought to a final concentration of 60 μM in 25 mM ammonium acetate (pH 8.5). After stirring in the dark for 30 min at 20° C. with 30 mM potassium ferricyanide, the peptide was mixed with AG3-X4A resin (BioRad), filtered, lyophilization and desalted on a 50×2.5 cm column of Biogel P2 (Pharmacia) developed in water, and further purified by reverse phase HPLC.\n(§4) Injection volumes were 36 μl for FIG. 2, 4 and 5 and 45 μl for FIG. 3. […] Protein concentrations in each experiment were (FIGS. 2 and 3), 2, 5, 10, 20, 30, 40 μM; (FIG. 4), 0.21, 0.31, 0.41, 0.62, 0.82, 1.24 μM; (FIG. 5), 0.22, 0.29, 0.44, 0.59, 0.88 μM. R.U. for the immobilized cytokine in each experiment was 2850 R.U. for FIGS. 2 and 3; 7450 R.U. for FIG. 4, and 5300 R.U., for FIG. 5 respectively.\n(§5) Data was analyzed using the BIA-evaluation software (Pharmacia Biosensor). The association rate constant, kass, was calculated by first plotting the change in response with time versus response (i.e. dR/dT vs R). When the slope of the line from this graph is plotted versus analyte concentration (i.e d(dR/dT)/dR vs C), kass is obtained from the slope of the line. The dissociation rate constant, kdiss, is obtained during the decrease in response with time after analyte injection is discontinued. Specifically, kdiss was obtained from the slope of the line in a plot of ln(Rt1 /Rtn) vs time. The affinity constants were calculated from KD =kdiss /kass. Variance for kass is standard error of the linear regression plot, and for kdiss values are the mean ± range of 3 or more independent injections."}, "[3]": {"target": "T2, TGF-β2 (Homo sapiens, UniProt P61812)", "T2 construct": "The mature processed cytokines produced from the members of the gene family show almost 100% amino acid identity between species", "T2 sequence (P61812 303-414 limits assumed)": "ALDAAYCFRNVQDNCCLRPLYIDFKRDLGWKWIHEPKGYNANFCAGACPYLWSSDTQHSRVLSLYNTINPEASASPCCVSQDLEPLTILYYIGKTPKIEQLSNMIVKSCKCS", "experiment": "BIAcore surface plasmon resonance, binding to immobilized TGF-β2", "settings": "ligand TGF-β2", "procedure": "as §1, §2, §3\nas §5, with “Variance for kass is standard error of the linear regression plot, and for kdiss values are the mean ± range of 3 or more independent injections.” left out"}, "[4]": {"target": "T3, BMP-2 (Homo sapiens, UniProt P12643)", "T3 construct": "Genetics Institute, Cambridge, Mass; (gift)", "T3 sequence (P12643 283-396)": "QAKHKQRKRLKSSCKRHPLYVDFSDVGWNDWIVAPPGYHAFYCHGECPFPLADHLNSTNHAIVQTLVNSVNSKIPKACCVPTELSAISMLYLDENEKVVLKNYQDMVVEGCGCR", "experiment": "BIAcore surface plasmon resonance, binding to immobilized BMP-2", "settings": "ligand BMP-2", "procedure": "as §1, §2, §3, §4, §5"}, "[5]": {"target": "T4, BMP-6 (Homo sapiens, UniProt P22004)", "T4 sequence (P22004 375-513)": "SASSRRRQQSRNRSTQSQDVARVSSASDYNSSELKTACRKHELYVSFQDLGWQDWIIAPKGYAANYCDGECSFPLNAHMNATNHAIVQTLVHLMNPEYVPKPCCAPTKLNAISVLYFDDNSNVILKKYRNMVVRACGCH", "experiment": "BIAcore surface plasmon resonance, binding to immobilized BMP-6", "settings": "Table 1; ligand BMP-6", "procedure": "as §1, §2\nRegeneration of the surface to remove bound analyte was done by injection of 10 μl of 20 mM NaOH. To cyclize TRH1 peptides, the material was reduced with 5 mM DTT then brought to a final concentration of 60 μM in 25 mM ammonium acetate (pH 8.5). […]\nData was analyzed using the BIA-evaluation software (Pharmacia Biosensor). The association rate constant, kass, was calculated by first plotting the change in response with time versus response (i.e. dR/dT vs R). […] The affinity constants were calculated from KD =kdiss /kass. […]"}, "[6]": {"settings": "Table 2 (calculations repeated)"}}}
{"substance": "Fetuin: Bovine fetal fetuin, glycoprotein obtained by ammonium sulfate fractionation of FCS and gel filtration (Sigma)", "values": [{"measurement": "Maximal effect, percent neutralization", "setting": "[1]; 12 pM TGF-β1, FIG. 1", "result": "approximately 150%"}, {"measurement": "IC50", "setting": "[1]; 18 pM human TGF-β1, FIG. 12, read-out: IC50, blocking of anti-proliferative activity of exogenously-added TGF-β1", "result": "~3000", "unit": "nM"}, {"measurement": "kass", "setting": "[2]; Table 1", "result": "670 ± 400", "unit": "M⁻¹ s⁻¹"}, {"measurement": "kass", "setting": "[2]; Table 1, listed as fetuin", "result": 670, "unit": "M⁻¹ s⁻¹"}, {"measurement": "kdiss", "setting": "[2]; Table 1, listed as fetuin", "result": 0.16, "unit": "s⁻¹"}, {"measurement": "kass", "setting": "[2]; [6]", "result": "870 ± 270", "unit": "M⁻¹ s⁻¹"}, {"measurement": "kdiss", "setting": "[2]; [6]", "result": 0.0019, "unit": "s⁻¹"}, {"measurement": "Kd", "setting": "[2]; Table 2 (calculations repeated), KD = kdiss/kass, listed as b-Fetuin", "result": 2200, "unit": "nM"}, {"measurement": "kass", "setting": "[3]; Table 1", "result": "550 ± 120", "unit": "M⁻¹ s⁻¹"}, {"measurement": "kass", "setting": "[3]; [6]", "result": "550 ± 120", "unit": "M⁻¹ s⁻¹"}, {"measurement": "kass", "setting": "[4]; Table 1", "result": "1700 ± 300", "unit": "M⁻¹ s⁻¹"}, {"measurement": "kass", "setting": "[4]; Table 1, listed as fetuin", "result": 1700, "unit": "M⁻¹ s⁻¹"}, {"measurement": "kdiss", "setting": "[4]; Table 1, listed as fetuin", "result": "6.2e-05", "unit": "s⁻¹"}, {"measurement": "kass", "setting": "[4]; [6]", "result": "2400 ± 1200", "unit": "M⁻¹ s⁻¹"}, {"measurement": "kdiss", "setting": "[4]; [6]", "result": "6.5e-05", "unit": "s⁻¹"}, {"measurement": "Kd", "setting": "[4]; Table 2 (calculations repeated), KD = kdiss/kass", "result": 27, "unit": "nM"}, {"measurement": "kass", "setting": "[5]", "result": "2900 ± 500", "unit": "M⁻¹ s⁻¹"}]}
